B1: OR4K15 (parent)
chain: GUUAACGGUCAUAGGCCAUGGAAACUAGGAGCACCAUUUCGCUGCCAGUGAAGAAAUGAACAAAGAAAAUCUGGGCCAGGCAGGCAUCAAAAGAAAUAGUCUUGCGCUCAACCAGAAAGUCUGUAAUCAUUUUAAGGGUA

Variants of: B1
Assay: self-cleavage, relative activity (ratio to wild type); higher = more cleavage; in vitro, sequencing; the parent is a self-cleaving ribozyme

| Variant | self-cleavage |
| --- | --- |
| C61U A91U | 1.73 |
| A60C U87C | 1.18 |
| A62G A114U | 0.02 |
| G58U C107A | 0.03 |
| G58A A111G | 0 |
| A60G A94G | 1.37 |
| G58U U120A | 1.17 |
| A62G C109U | 0.53 |
| A60U A68G | 1.79 |
| A62C U87A | 1.54 |
| A60G A95C | 1 |
| A60G A95U | 0.97 |
| A60G A95G | 1.63 |
| A60U A114G | 0.58 |
| A60G C77U | 2.13 |
| A59G A69G | 1.26 |
| A60U A118G | 1.58 |
| G58A U130C | 0.82 |
| G58U A117G | 1.89 |
| A59U A125G | 0.43 |
| A59G A89U | 0.98 |
| A60U A117U | 1.11 |
| A59U A78C | 0.4 |
| A62U A118U | 0.82 |

| Variant | self-cleavage |
| --- | --- |
| A60U U127A | 2.36 |
| A60U U127C | 0.92 |
| A60G A67G | 0.84 |
| C61U A86G | 1.72 |
| A60G U124A | 0.75 |
| A62C A67G | 0.86 |
| A60G U108C | 0.03 |
| A60G U108A | 0.02 |
| A60U G115A | 0.29 |
| A59G A111U | 0.07 |
| A60C U122A | 1.74 |
| A59C U122C | 1.06 |
| G58U A68G | 0.92 |
| A62U A67G | 1.19 |
| A62U A67C | 1.64 |
| A59U A89G | 1.48 |
| A59G U132A | 0.98 |
| A60G A68C | 1.57 |
| C61U U87C | 1.35 |
| A60G A114G | 0.31 |
| A60U A90G | 1.34 |
| A62C A125G | 0.58 |
| G58A U132C | 1.64 |
| C61U A89G | 1.62 |

| Variant | self-cleavage |
| --- | --- |
| U57G U127C | 1.33 |
| A62G U120G | 0.84 |
| A62G U120C | 1.07 |
| A60G A64G | 1.24 |
| A60G U122A | 1.41 |
| A60G U122C | 0.84 |
| A62G A111G | 0.02 |
| A59U U72C | 0.17 |
| A59U U72A | 0.14 |
| A60U A63G | 0.71 |
| A59U A69G | 1.51 |
| A59U U103C | 0.31 |
| A62G G80A | 0.35 |
| A62G G80C | 0.13 |
| A60G G80U | 0.09 |
| A62C A111G | 0.03 |
| A62G A82G | 0.49 |
| A62G A82U | 0.25 |
| A59G U139A | 2.02 |
| A59G U139C | 1.4 |
| A62C A78C | 0.31 |
| A60G G83A | 1.3 |
| A62G U108A | 0.01 |
| A60G U97A | 1.69 |

| Variant | self-cleavage |
| --- | --- |
| A59G A82U | 0.34 |
| A59G A82G | 0.45 |
| A62U A117G | 1.64 |
| A60G C85U | 1.31 |
| A62U A92G | 1.34 |
| A62G U70C | 0.47 |
| A62G U70A | 1.59 |
| C61U A64U | 0.27 |
| A59C A60G | 0.56 |
| A62U A64G | 1.46 |
| A62U A64U | 1.06 |
| A59G U103A | 0.62 |
| A62G C81U | 0.26 |
| A60G G74U | 0.18 |
| A59U A66G | 1.31 |
| A62C U132C | 1.25 |
| A62G U124G | 1.13 |
| A62G U124C | 0.94 |
| A62G A92G | 1.22 |
| A59U A134U | 1.92 |
| A59G A118U | 0.74 |
| A59G A118G | 0.75 |
| A60U U131C | 0.75 |
| A62U A111U | 0.07 |

| Variant | self-cleavage |
| --- | --- |
| A60U G106C | 0 |
| A60U G106A | 0 |
| A59U A60G | 1.32 |
| A62G C77U | 2.24 |
| A62U A68G | 1.4 |
| A62G U122G | 2.99 |
| A62G U122C | 1.27 |
| A62G C113U | 0.14 |
| A59G C71A | 0.48 |
| A60U U120C | 0.7 |
| C61A | 1.82 |
| C61U | 1.8 |
| C61G | 1.24 |
| A62G A134U | 1.75 |
| C61U A140G | 1.73 |
| A62U A96G | 1.69 |
| A60G C105A | 0.04 |
| A60G C105G | 0.01 |
| A62U A86G | 1.88 |
| A59G C121A | 2.81 |
| G58U A64G | 1.2 |
| A62G A91G | 1.12 |
| A60U U122A | 2.08 |
| A62U A110G | 0.14 |

| Variant | self-cleavage |
| --- | --- |
| A60U A140U | 1.59 |
| A60U A140G | 2.47 |
| A62G U97C | 1.34 |
| A60C G123A | 1.98 |
| A59G C107U | 0.01 |
| A60G U120A | 1.93 |
| A60G U120C | 0.82 |
| A60G A78C | 0.17 |
| A60G A78U | 0.35 |
| A62G A89G | 0.94 |
| A62G A89U | 1.85 |
| A59G U127C | 0.7 |
| A59G U127A | 1.82 |
| A60G A129U | 1.14 |
| A60G C112A | 0.02 |
| A62C U120C | 0.93 |
| A60C U130C | 1.4 |
| A59G G104A | 0.06 |
| A62U A116G | 1.13 |
| A62G U103C | 0.98 |
| A62G G138A | 1.04 |
| A62G A116G | 0.64 |
| A59U U122C | 0.69 |
| A62G A86G | 1.4 |

| Variant | self-cleavage |
| --- | --- |
| A59U A118G | 0.75 |
| A59G U72C | 0.23 |
| G58A A96G | 1.84 |
| A60G G106A | 0.02 |
| A62U A69G | 0.81 |
| G58U A111G | 0.02 |
| A62G A64U | 1.23 |
| A60U A111G | 0.05 |
| A60G A66U | 1.26 |
| A59C U100C | 1.22 |
| A60U G138A | 1.37 |
| A62C U72C | 0.26 |
| A60C A135U | 1.44 |
| A59G G75A | 0.22 |
| A59U A82U | 0.15 |
| A59U A82G | 0.43 |
| A60C A89C | 1.8 |
| A62G C105A | 0.03 |
| A59G A125G | 0.4 |
| A62G G75C | 0.18 |
| A62G G75U | 0.15 |
| A62G U132G | 0.5 |
| A62G U132C | 1.59 |

Source: the RNAGym collection of RNA variant scans (doi:10.7554/elife.90254)
